Measured values from the supplement of paper PMC10567573.

B1: LRRC45 (parent)
chain: FQTRQEMTSMSAELKMRAIQAEER

Variants of: B1
Test: protein stability index of a GFP-peptide fusion (GPS, HEK-293T) (PSI 1-6); higher = more stable
Conditions: c terminus: a fixed tail appended
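Also: lentivirally expressed fusions sorted by FACS into six bins by GFP to DsRed ratio, PSI derived from sequencing read proportions per bin multiplied by bin number.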

Protein stability index, by site and new letter:
S9: F 3.02, K 4.32, E 4.49, Q 3.73, W 2.32, G 4.11, P 4.01, T 3.96, L 4.12, I 3.58, D 4.05, V 3.51, Y 3.28, N 4.28, M 4.17, R 3.78, H 3.84, C 3.41
Q20: P 3.76, D 3.99, F 2.26, K 3.5, H 3.98, V 3.28, T 3.9, M 3.52, G 3.62, I 2.8, L 3.57, W 2.74, R 3.2, A 4.3, S 4.11, Y 3.08, C 3, E 4.34, N 3.83
M16: N 4.16, I 3.52, F 3.75, A 4.39, K 4.36, G 4, H 3.88, E 4.68, T 3.96, Q 4.03, S 4.37, C 3.79, W 3.66, P 3.98, L 4.24, Y 3.83, D 4.38, V 3.99, R 4.21
E22: P 2.74, H 2.92, R 3.18, A 3.56, Y 3.9, K 3.57, L 2.59, I 3.1, W 2.56, Q 3.37, M 3.64, C 3.18, N 3.44, T 3.23, G 2.53, D 3.64, S 3.28, F 2.56, V 3.18
R17: S 3.43, G 3.82, A 4.34, N 4.07, L 3.95, P 4.33, W 2.3, K 4.25, V 3.75, Y 3.67, H 4.09, M 4.18, C 4.01, F 2.84, I 3.94, E 4.33, Q 3.89, D 4.59, T 4.08
R24: V 3.67, N 4.05, S 4.3, I 3.94, L 4.05, H 4.01, W 2.85, Q 4.5, G 4.18, T 3.96, D 4.29, C 3.4, P 3.88, Y 3.71, K 4.26, E 4.5, A 4.19, M 3.54, F 3.19
A18: I 3.75, T 3.95, K 3.72, V 3.41, M 3.73, N 3.88, H 3.33, Q 3.85, E 4.08, L 3.92, R 3.96, W 3.54, Y 3.69, D 4.33, G 3.81, S 3.82, C 3.69, F 3.51, P 3.45
A21: F 3.89, K 3.76, Y 3.76, E 4.32, W 3.43, L 4, H 4.03, T 3.83, P 3.89, I 3.49, G 3.97, R 3.8, S 3.81, C 3.68, D 4.63, M 3.57, Q 3.79, N 4.15, V 3.59
E13: C 3.74, N 3.1, T 3.53, P 3.69, M 3.47, G 3.6, D 3.82, H 3.08, Y 2.73, L 3.1, W 2.97, F 3.1, I 3.21, R 3.57, S 3.83, V 3.35, A 3.62, Q 4.04, K 3.61
S11: G 3.97, P 3.73, Q 4.16, C 3.63, M 3.68, I 3.09, R 3.83, N 3.92, K 3.67, F 4.22, L 3.85, T 3.73, E 3.98, A 3.88, W 1.96, D 4.54, H 4.43, Y 2.93, V 3.74
I19: W 3.04, G 3.89, Q 4.09, P 3.84, F 3.81, E 4.55, D 4.73, C 3.96, H 4.38, R 4.19, V 4.28, L 4.08, N 4.27, M 3.84, A 4.53, T 4.21, K 4.68, S 4.38, Y 3.8
L14: E 3.99, M 3.83, T 4.38, G 4.24, Q 4.28, H 4.34, V 4.21, Y 3.74, F 3.21, C 3.72, A 4.16, W 3.2, S 4.11, K 4.12, R 4.23, I 4.13, P 3.99, D 3.89, N 4.18
A12: H 4.12, Q 4.29, F 3.3, T 3.94, L 3.92, W 2.04, C 3.71, G 4.44, M 3.72, V 3.47, D 4.26, S 4.24, E 4.44, K 3.92, R 3.73, P 4.28, Y 3.39, N 3.3, I 3.3
M10: S 4.1, L 4.27, A 3.84, I 3.69, P 4.55, Y 3.97, K 4.07, C 2.53, E 3.51, H 4.12, W 3.07, F 4.1, R 4.16, Q 4.21, V 3.94, N 4.14, T 4.28, D 3.98, G 4.34
E23: H 3.39, K 3.53, F 2.99, Q 4.11, Y 2.88, P 3.81, L 3.1, I 3.7, A 3.16, G 3.56, S 3.52, V 3.22, R 3.54, M 3.16, N 3.32, T 3.16, C 2.61, W 2.26, D 3.33
K15: G 4.2, N 4.26, V 3.29, E 4.88, L 3.05, F 2.97, P 4.38, W 2.88, C 3.86, Q 4.12, H 4.16, D 4.65, T 4.01, M 3.26, S 4.23, I 3.27, Y 3.59, A 4.16, R 4.38
